The target of the experiment is Mature human IL-6 (human) (UniProt P05231). Description: cell-based or functional assay.
Sequence of Mature human IL-6 (human) (P05231 30-212): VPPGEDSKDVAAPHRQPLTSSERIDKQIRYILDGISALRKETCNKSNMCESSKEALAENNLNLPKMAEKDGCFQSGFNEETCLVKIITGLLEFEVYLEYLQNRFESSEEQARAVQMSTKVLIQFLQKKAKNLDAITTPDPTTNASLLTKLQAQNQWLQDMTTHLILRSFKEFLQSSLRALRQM

B1: Antibody 8 scFv (scFv, part only; not given: scFv linker, part only)
scFv, part: EVQLVQSGGGLIQPGGSLRLSCAASGFTISSNYMIWVRQAPGKGLEWVSDLYYYAGDTYYADSVKGRFTMSRDISKNTVYLQMNSLRAEDTGVYYCARWADDHPRYIDHWGRGTLVTVSSDIVMTQSPSTLSASVGDRVTITCRASQGISSWLAWYQQKPGRAPKVLIYKASTLESGVPSRFSGSGSGTDFTLTISSLQPEDFATYYCQQSWLGGSFGQGTKLEIKR
With B1, the IC50, TF-1 cell proliferation assay was found to be 0.419 nM.

B2: Antibody 21 scFv (scFv, part only; not given: scFv linker, part only)
scFv, part: EVQLVQSGGGLIQPGGSLRLSCAASGFTISSNYMIWVRQAPGKGLEWVSDLYYYAGDTYYADSVKGRFTMSRDISKNTVYLQMNSLRAEDTGVYYCARWADDHPSHIDVWGRGTLVTVSSDIVMTQSPSTLSASVGDRVTITCRASQGISSWLAWYQQKPGRAPKVLIYKASTLESGVPSRFSGSGSGTDFTLTISSLQPEDFATYYCQQSWLGGSFGQGTKLEIKR
Take B2: the IC50, TF-1 cell proliferation assay came out at 0.042 nM.

B3: Antibody 14 scFv (scFv, part only; not given: scFv linker, part only)
scFv, part: EVQLVQSGGGLIQPGGSLRLSCAASGFTISSNYMIWVRQAPGKGLEWVSDLYYYAGDTYYADSVKGRFTMSRDISKNTVYLQMNSLRAEDTGVYYCARWADDHNYPHIDVWGRGTLVTVSSDIVMTQSPSTLSASVGDRVTITCRASQGISSWLAWYQQKPGRAPKVLIYKASTLESGVPSRFSGSGSGTDFTLTISSLQPEDFATYYCAAHYAAPWTFGQGTKLEIKR
For the molecule B3, the IC50, TF-1 cell proliferation assay was determined as 0.448 nM.

B4: Antibody 22 scFv (scFv, part only; not given: scFv linker, part only)
scFv, part: EVQLVQSGGGLIQPGGSLRLSCAASGFTISSNYMIWVRQAPGKGLEWVSDLYYYAGDTYYADSVKGRFTMSRDISKNTVYLQMNSLRAEDTGVYYCARWADDHNNTYIDVWGRGTLVTVSSDIVMTQSPSTLSASVGDRVTITCRASQGISSWLAWYQQKPGRAPKVLIYKASTLESGVPSRFSGSGSGTDFTLTISSLQPEDFATYYCAAHYAAPWTFGQGTKLEIKR
The molecule B4 came in with an IC50, TF-1 cell proliferation assay of 0.041 nM.

B5: CNTO-328 (antibody, INN chains, looked up, V domains shown)
VH: EVQLVESGGKLLKPGGSLKLSCAASGFTFSSFAMSWFRQSPEKRLEWVAEISSGGSYTYYPDTVTGRFTISRDNAKNTLYLEMSSLRSEDTAMYYCARGLWGYYALDYWGQGTSVTVSS
VL: QIVLIQSPAIMSASPGEKVTMTCSASSSVSYMYWYQQKPGSSPRLLIYDTSNLASGVPVRFSGSGSGTSYSLTISRMEAEDAATYYCQQWSGYPYTFGGGTKLEIK
As to B5, the IC50, IL-6 induced TF-1 cell proliferation assay came to 0.101 nM; the IC50, TF-1 cell proliferation assay turned out to be 0.074 nM; the IC50, endogenous IL-6 induced synovial fibroblast VEGF release assay is 1.31 nM.

Source of the values: US20150197568A1.
